Our source for the percent cosedimented with MTs values is publication PMC3135399.

The test has as its target microtubules (taxol-stabilised, of the MT cosedimentation assay) (bovine) (UniProt Q6B856). Put plainly: co-sedimentation.

“alkaline phosphatase–treated WT CPC, P38283 1-698; P38991 1-367; P47134 1-954; Q3E7Y6 1-73” returned a percent cosedimented with MTs of 50%.
